Test results from the supplement of paper PMC12042874.
± gives the uncertainty stated by the source.

Assay: amyloid nucleation score (Sup35N fusion, yeast selection) (log enrichment); library NNK3; higher = more nucleation; inactive = no reads after selection
In short: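 Using DiMSum, nucleation scores were taken as the log enrichment of output over input reads, centred on the mode score of non-aggregating sequences. The input and output reads came from Illumina sequencing of plasmid inserts, with sequences under 100 input reads excluded. The yeast were psi-negative, expressed Sup35N fused to peptides of 20 random codons, were induced with 100 μM copper sulfate for 24 hours, and were grown 7 days at 30°C on medium lacking adenine and uracil.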

Substance: CIVRIVQST
- amyloid nucleation score: inactive

Substance: CIWLTVIFSWRYEVG
- amyloid nucleation score: inactive

Substance: CKFEMSEIDFVYASSIFR
- amyloid nucleation score: inactive

Substance: CKLYHIIGLYLGVVVL
- amyloid nucleation score: inactive

Substance: CKSIPWVFYWFLLLYGYL
- amyloid nucleation score: inactive

Substance: CKTIKVVLAALGFCYPQYSL
- amyloid nucleation score: inactive

Substance: CKYSMRLDCLARNNDLKVLL
- amyloid nucleation score: inactive

Substance: CLCFCCCSRVHYGTLFRNSA
- amyloid nucleation score: 2.98 ± 0.052

Substance: CLCSTRVRGSFPPDSTVHNF
- amyloid nucleation score: inactive

Substance: CLCWKAVLDRELFKSGFTAA
- amyloid nucleation score: inactive

Substance: CLFVCDYGLFECGQMVVEVY
- amyloid nucleation score: inactive

Substance: CLGYRFVWGVPFVKFDRIIW
- amyloid nucleation score: inactive

Substance: CLLSYSQPLGKGFGSTRDRC
- amyloid nucleation score: inactive

Substance: CLPQHKISNH
- amyloid nucleation score: inactive

Substance: CLSFYCTVSKKVRRKAVTPF
- amyloid nucleation score: 0.807 ± 0.2

Substance: CLSLLNFDVCVMRSVVRVFA
- amyloid nucleation score: inactive

Substance: CMFSPPCDLRGETVLRRPSL
- amyloid nucleation score: 0.143 ± 0.62

Substance: CMMSWIDSNFRGSEMLTH
- amyloid nucleation score: inactive

Substance: CMNIRPMATLTESSS
- amyloid nucleation score: inactive

Substance: CMPHG
- amyloid nucleation score: inactive

Substance: CMQLVMSYTVCFVDGGVLA
- amyloid nucleation score: inactive

Substance: CMRSESCVVPRNNKFFLLSG
- amyloid nucleation score: -0.361 ± 0.96

Substance: CMTLYLLSLSC
- amyloid nucleation score: inactive

Substance: CMTTASVQDKMVLLVWLLDE
- amyloid nucleation score: inactive

Substance: CNFNLILLMDGIKGSFL
- amyloid nucleation score: 2.35 ± 0.065

Substance: CNIEGYNETNVCECWNMELL
- amyloid nucleation score: inactive

Substance: CNIVSMFGCSGVMMACAAVV
- amyloid nucleation score: inactive

Substance: CNKSFRLYEMM
- amyloid nucleation score: inactive

Substance: CNLVDSYNSKRMVNSTSMPF
- amyloid nucleation score: inactive

Substance: CNMSPKNFSIFSFVPNKPVG
- amyloid nucleation score: inactive

Substance: CNTGPEIMASVAKVDVWVIK
- amyloid nucleation score: 1.65 ± 0.11

Substance: CNVRFCIDFMIFMVISDSKD
- amyloid nucleation score: 1.11 ± 0.14

Substance: CNYCGPEAFGILFDYWTMSY
- amyloid nucleation score: inactive

Substance: CPESCSN
- amyloid nucleation score: inactive

Substance: CPKALRIIGRSYCRTSEVTS
- amyloid nucleation score: inactive

Substance: CPTPGWTLKRVGRVYECRG
- amyloid nucleation score: inactive

Substance: CQTGRYRESALSVLARKLNA
- amyloid nucleation score: inactive

Substance: CRINEWLGIGNSVSSSDHMG
- amyloid nucleation score: inactive

Substance: CRISSPAGVNLLDSSRLSRL
- amyloid nucleation score: inactive

Substance: CRKNRSFGDGDLKFCANLNC
- amyloid nucleation score: inactive

Substance: CRLVAEYGLQVKPMQR
- amyloid nucleation score: inactive

Substance: CRRPKRNH
- amyloid nucleation score: inactive

Substance: CRRVMVILMH
- amyloid nucleation score: inactive

Substance: CRTQYKCRIAIWGYKFQPER
- amyloid nucleation score: inactive

Substance: CSALC
- amyloid nucleation score: inactive

Substance: CSATRYFCRNLRRVCVNEYG
- amyloid nucleation score: inactive

Substance: CSCFYNNRIISSPMLLWLVQ
- amyloid nucleation score: inactive

Substance: CSIVVNLMYLLVDACMGPKG
- amyloid nucleation score: inactive

Substance: CSKIFGRERMFYRVDMVS
- amyloid nucleation score: inactive

Substance: CSMLASMWTTIRYLLLLEVA
- amyloid nucleation score: 1.49 ± 0.09

Substance: CSNLVLP
- amyloid nucleation score: -0.765 ± 1.4

Substance: CSPVTCEISDWIV
- amyloid nucleation score: inactive

Substance: CSQIPLHKLTMCMLY
- amyloid nucleation score: inactive

Substance: CSRSAENNFMMNLLNTIRVL
- amyloid nucleation score: inactive

Substance: CSRSSLLLVDWPMVGSDKLL
- amyloid nucleation score: inactive

Substance: CSYAEKIVKGLAPVFLKVN
- amyloid nucleation score: inactive

Substance: CTNKFVWKFVKFNNLCLLAY
- amyloid nucleation score: inactive

Substance: CTNKSSVYEFCYCVADMANV
- amyloid nucleation score: inactive

Substance: CTRCVFSIR
- amyloid nucleation score: -0.056 ± 0.57

Substance: CTSESVSYNMDRTKCQMYLT
- amyloid nucleation score: inactive

Substance: CTVGIYLLNLC
- amyloid nucleation score: 2.45 ± 0.084

Substance: CVDFR
- amyloid nucleation score: inactive

Substance: CVEVLWERPSGTRAGMVGLL
- amyloid nucleation score: -0.792 ± 1.4

Substance: CVGSVPVMTKMVGDMGMASR
- amyloid nucleation score: inactive

Substance: CVKVGDGCLHASIGAR
- amyloid nucleation score: inactive

Substance: CVLAFVVVLLGWGHSSGAGG
- amyloid nucleation score: 0.825 ± 0.2

Substance: CVRFPANLSFGSDRKAKLS
- amyloid nucleation score: inactive

Substance: CVRSTCQALGMGRWEPHCAI
- amyloid nucleation score: inactive

Substance: CVSNLLTTYNNAFRFAHMVS
- amyloid nucleation score: inactive

Substance: CVTYSYCYCQANHFHCRCQQ
- amyloid nucleation score: 2.88 ± 0.062

Substance: CVVNLHSRIEARLLQIYRAV
- amyloid nucleation score: inactive

Substance: CVVTGMMYTVFDKAFCFNAS
- amyloid nucleation score: 1.89 ± 0.11

Substance: CVVVETLLNMRRSRY
- amyloid nucleation score: inactive

Substance: CVYFGRVNFTVGLLPSLNGF
- amyloid nucleation score: 1.46 ± 0.14

Substance: CVYGKYLFLVIPEDEPTLYV
- amyloid nucleation score: 0.439 ± 0.31

Substance: CVYIDGSIAVGWYMKFILTF
- amyloid nucleation score: inactive

Substance: CWDFKGFMMESLTNRSPYAS
- amyloid nucleation score: inactive

Substance: CWFNPDPGLKWF
- amyloid nucleation score: inactive

Substance: CWLAAFSFRRSVLSCQGGQG
- amyloid nucleation score: inactive

Substance: CWLNLGVLKSLY
- amyloid nucleation score: inactive

Substance: CWTAPLSKFLRVWVTIPYNL
- amyloid nucleation score: inactive

Substance: CWTVMFCF
- amyloid nucleation score: 1.43 ± 0.11

Substance: CYAGRLSETSNWLLLCVELE
- amyloid nucleation score: inactive

Substance: CYFSIYYYSYLLFRMLGVKW
- amyloid nucleation score: inactive

Substance: CYLISILPLGLFIDSLAWVT
- amyloid nucleation score: inactive

Substance: CYLNQSKYAARWNCGDNKME
- amyloid nucleation score: inactive

Substance: CYMVEDRRIDSRSAVSWRYV
- amyloid nucleation score: inactive

Substance: CYRYAIMNAFS
- amyloid nucleation score: inactive

Substance: CYSKYSS
- amyloid nucleation score: inactive

Substance: CYSLFSLPMKALRSISVRCW
- amyloid nucleation score: 1.52 ± 0.13

Substance: CYSNSEPISAYDD
- amyloid nucleation score: inactive

Substance: CYVDVI
- amyloid nucleation score: inactive

Substance: CYVIILVRL
- amyloid nucleation score: inactive

Substance: CYVPVKGLYMPPYGTLRLWG
- amyloid nucleation score: inactive

Substance: CYYDSLYCVEFHFCNYIVVL
- amyloid nucleation score: -0.127 ± 0.99

Substance: DACSVNEMSYVDTAGIWVWR
- amyloid nucleation score: inactive

Substance: DADSMRWNSPGLCH
- amyloid nucleation score: inactive

Substance: DAFIGYHYLGGLISGIWSSR
- amyloid nucleation score: 0.693 ± 0.097

Substance: DASSDRVSVYSAYK
- amyloid nucleation score: inactive

Substance: DAYREY
- amyloid nucleation score: -0.557 ± 1.2

Substance: DCGATSLKTMASGLRMKRTS
- amyloid nucleation score: inactive

Substance: DCLDNK
- amyloid nucleation score: inactive

Substance: DCLFRNLMS
- amyloid nucleation score: inactive

Substance: DCLMDGDFRILGSFIHRFSE
- amyloid nucleation score: inactive

Substance: DCLSVEFVLNTRVAYWCTCA
- amyloid nucleation score: -0.092 ± 0.52

Substance: DCRWVCKFYPPVFNVIVEKV
- amyloid nucleation score: inactive

Substance: DCVRVRVLKSGTYLLYRSEA
- amyloid nucleation score: inactive

Substance: DDASFIMERI
- amyloid nucleation score: inactive

Substance: DDCTTVF
- amyloid nucleation score: inactive

Substance: DDLIGSIFKFLVLSRGKT
- amyloid nucleation score: inactive

Substance: DDLMASTMGSSMG
- amyloid nucleation score: inactive

Substance: DDYYFG
- amyloid nucleation score: inactive

Substance: DECMARLNDWEGYAKD
- amyloid nucleation score: inactive

Substance: DEISSFER
- amyloid nucleation score: inactive

Substance: DELTNLPCY
- amyloid nucleation score: -0.405 ± 0.79

Substance: DEMRKGRWHGDRLGRSDRQE
- amyloid nucleation score: inactive

Substance: DETVMFSFKFIVKSVVVDPR
- amyloid nucleation score: inactive

Substance: DFEVSMGQR
- amyloid nucleation score: -0.015 ± 0.8

Substance: DFGHVIQSSWNSMNSAQSVA
- amyloid nucleation score: inactive

Substance: DFGVYNEHHGYLILGIKRDQ
- amyloid nucleation score: inactive

Substance: DFHVLRYVLFRWMWIIWRKG
- amyloid nucleation score: inactive

Substance: DFIRRVHYLKLSVWDVMTMR
- amyloid nucleation score: inactive

Substance: DFLVVYNAMCDKELVDTGEI
- amyloid nucleation score: inactive

Substance: DFRGDLFELMMIYGRGMVLT
- amyloid nucleation score: inactive

Substance: DFSGVSLDVITRRCLGFIGA
- amyloid nucleation score: inactive

Substance: DFWRTIEGKMSLALI
- amyloid nucleation score: inactive

Substance: DFWRYDSS
- amyloid nucleation score: inactive

Substance: DFYGCGFTFTRSFFRQWFIG
- amyloid nucleation score: 1.09 ± 0.11

Substance: DGDYL
- amyloid nucleation score: inactive

Substance: DGFYYSALLMFLV
- amyloid nucleation score: inactive

Substance: DGGRTSLLLTEKKVR
- amyloid nucleation score: inactive

Substance: DGHGRRHSRVQIRGIVACSD
- amyloid nucleation score: inactive

Substance: DGLQSN
- amyloid nucleation score: inactive

Substance: DGMSMCRQLLKGVQKPDYLL
- amyloid nucleation score: inactive

Substance: DGNGLNTRGNLTSGIFHRQY
- amyloid nucleation score: inactive

Substance: DGNLPPNWLKGACTFRWTFI
- amyloid nucleation score: inactive

Substance: DGPHLPDHGGLM
- amyloid nucleation score: inactive

Substance: DGQARISRYSTWLEEFLRCG
- amyloid nucleation score: inactive

Substance: DGRCKMLPVESGGAC
- amyloid nucleation score: inactive

Substance: DGRSIEFIDGCDVYSICSRE
- amyloid nucleation score: inactive

Substance: DHHLEEYRL
- amyloid nucleation score: inactive

Substance: DHYAWIFTDRLWYCRCNTVT
- amyloid nucleation score: inactive

Substance: DIAKCNACGHENMFCRWMCV
- amyloid nucleation score: inactive

Substance: DICLSYIFLL
- amyloid nucleation score: 0.84 ± 0.17

Substance: DILTMCEYDSDNNVGNLCYS
- amyloid nucleation score: inactive

Substance: DINAVT
- amyloid nucleation score: inactive

Substance: DINCSWTLQNGRGTLSE
- amyloid nucleation score: inactive

Substance: DIQYWYTPVTKMTYSTNWFF
- amyloid nucleation score: 1.26 ± 0.1

Substance: DISSLR
- amyloid nucleation score: inactive

Substance: DIYFTSESSVYIVHWFLFRH
- amyloid nucleation score: inactive

Substance: DKIGDFNLYWHVKALLAYFY
- amyloid nucleation score: inactive

Substance: DKNNLIFFLRAVCYFSSERT
- amyloid nucleation score: 1.08 ± 0.11

Substance: DKSMIFVFI
- amyloid nucleation score: 0.864 ± 0.22

Substance: DKWSWSVCNIRLSKSCNPVT
- amyloid nucleation score: inactive

Substance: DLDFFGGCLFFHQGTIFYDG
- amyloid nucleation score: inactive

Substance: DLDIRIFMVHDPAYCSLCSF
- amyloid nucleation score: inactive

Substance: DLHVLSVK
- amyloid nucleation score: inactive

Substance: DLIQLDALWDVRTHWTWGTP
- amyloid nucleation score: inactive

Substance: DLNIVIPRIRAHRA
- amyloid nucleation score: inactive
